± gives the standard deviation of the averaged measurements.
Assay: total protein half-life in vivo (active degradation + dilution); higher = more stable protein
[1] = E. coli NCM3722 delta-clpP, growth: N-lim chemostat, doubling time 6 h
[2] = E. coli NCM3722 delta-smpB, growth: N-lim chemostat, doubling time 6 h
[3] = wild type E. coli NCM3722, growth: C-lim chemostat, doubling time 6 h
[4] = wild type E. coli NCM3722, growth: C-lim chemostat, doubling time 12 h
[5] = wild type E. coli NCM3722, growth: N-lim chemostat, doubling time 6 h
[6] = wild type E. coli NCM3722, growth: N-lim chemostat, doubling time 12 h
[7] = wild type E. coli NCM3722, growth: P-lim chemostat, doubling time 12 h
[8] = E. coli NCM3722 delta-clpP delta-lon delta-hslV, growth: N-lim chemostat, doubling time 6 h
[9] = E. coli NCM3722 delta-hslV, growth: N-lim chemostat, doubling time 6 h
[10] = E. coli NCM3722 delta-lon, growth: N-lim chemostat, doubling time 6 h
[11] = wild type E. coli NCM3722, growth: C-lim chemostat, doubling time 3 h
[12] = wild type E. coli NCM3722, growth: P-lim chemostat, doubling time 6 h

## MSSQYLRIFQQPRSAILLILGFASGLPLALTSGTLQAWMTVENIDLKTIGFFSLVGQAYVFKFLWSPLMDRYTPPFFGRRRGWLLATQILLLVAIAAMGFLEPGTQLRWMAALAVVIAFCSASQDIVFDAWKTDVLPAEERGAGAAISVLGYRLGMLVSGGLALWLADKWLGWQGMYWLMAALLIPCIIATLLAPEPTDTIPVPKTLEQAVVAPLRDFFGRNNAWLILLLIVLYKLGDAFAMSLTTTFLIRGVGFDAGEVGVVNKTLGLLATIVGALYGGILMQRLSLFRALLIFGILQGASNAGYWLLSITDKHLYSMGAAVFFENLCGGMGTSAFVALLMTLCNKSFSATQFALLSALSAVGRVYVGPVAGWFVEAHGWSTFYLFSVAAAVPGLILLLVCRQTLEYTRVNDNFISRTAYPAGYAFAMWTLAAGVSLLAVWLLLLTMDALDLTHFSFLPALLEVGVLVALSGVVLGGLLDYLALRKTHLT [P0AE16]
[1]
  total protein half-life in vivo: 5.97 h
[2]
  total protein half-life in vivo: 6.24 h
[3]
  total protein half-life in vivo: 4.45 h
[4]
  total protein half-life in vivo: 4.64 h
[5]
  total protein half-life in vivo: 6.55 h
[6]
  total protein half-life in vivo: 12.4 ± 4.7 h
[7]
  total protein half-life in vivo: 10.3 ± 1.2 h

## MSSRNNPARVAIVMGSKSDWATMQFAAEIFEILNVPHHVEVVSAHRTPDKLFSFAESAEENGYQVIIAGAGGAAHLPGMIAAKTLVPVLGVPVQSAALSGVDSLYSIVQMPRGIPVGTLAIGKAGAANAALLAAQILATHDKELHQRLNDWRKAQTDEVLENPDPRGAA [P0AG18]
[8]
  total protein half-life in vivo: 5.15 ± 0.26 h
[1]
  total protein half-life in vivo: 4.94 ± 0.41 h
[9]
  total protein half-life in vivo: 4.8 ± 0.085 h
[10]
  total protein half-life in vivo: 4.93 ± 0.088 h
[2]
  total protein half-life in vivo: 4.71 ± 0.3 h
[11]
  total protein half-life in vivo: 2.77 ± 0.034 h
[3]
  total protein half-life in vivo: 5.47 ± 0.46 h
[4]
  total protein half-life in vivo: 9.5 ± 0.76 h
[5]
  total protein half-life in vivo: 4.67 ± 0.13 h
[6]
  total protein half-life in vivo: 6.68 ± 0.46 h
[12]
  total protein half-life in vivo: 5.68 ± 0.13 h
[7]
  total protein half-life in vivo: 10.9 ± 0.31 h

## MSSRVLTPDVVGIDALVHDHQTVLAKAEGGVVAVFANNAPAFYAVTPARLAELLALEEKLARPGSDVALDDQLYQEPQAAPVAVPMGKFAMYPDWQPDADFIRLAALWGVALREPVTTEELASFIAYWQAEGKVFHHVQWQQKLARSLQIGRASNGGLPKRDVNTVSEPDSQIPPGFRG [P0A8J2]
[8]
  total protein half-life in vivo: 4.71 ± 0.31 h
[1]
  total protein half-life in vivo: 4.26 h
[9]
  total protein half-life in vivo: 1.78 ± 0.14 h
[3]
  total protein half-life in vivo: 3.49 h
[4]
  total protein half-life in vivo: 5.15 ± 0.3 h
[6]
  total protein half-life in vivo: 2.93 ± 0.94 h
[12]
  total protein half-life in vivo: 2.68 ± 0.39 h
[7]
  total protein half-life in vivo: 5.6 ± 0.28 h

## MSSVSTSGSGAPKSSFSFGRIWDQYGMLVVFAVLFIACAIFVPNFATFINMKGLGLAISMSGMVACGMLFCLASGDFDLSVASVIACAGVTTAVVINLTESLWIGVAAGLLLGVLCGLVNGFVIAKLKINALITTLATMQIVRGLAYIISDGKAVGIEDESFFALGYANWFGLPAPIWLTVACLIIFGLLLNKTTFGRNTLAIGGNEEAARLAGVPVVRTKIIIFVLSGLVSAIAGIILASRMTSGQPMTSIGYELIVISACVLGGVSLKGGIGKISYVVAGILILGTVENAMNLLNISPFAQYVVRGLILLAAVIFDRYKQKAKRTV [P0AE26]
[11]
  total protein half-life in vivo: 2.54 ± 0.33 h
[3]
  total protein half-life in vivo: 4.04 ± 0.19 h
[4]
  total protein half-life in vivo: 7.44 ± 0.65 h

## MSSYANHQALAGLTLGKSTDYRDTYDASLLQGVPRSLNRDPLGLKADNLPFHGTDIWTLYELSWLNAKGLPQVAVGHVELDYTSVNLIESKSFKLYLNSFNQTRFNNWDEVRQTLERDLSTCAQGKISVALYRLDELEGQPIGHFNGTCIDDQDITIDNYEFTTDYLENATCGEKVVEETLVSHLLKSNCLITHQPDWGSLQIQYRGRQIDREKLLRYLVSFRHHNEFHEQCVERIFNDLLRFCQPEKLSVYARYTRRGGLDINPWRSNSDFVPSTTRLVRQ
[8]
  total protein half-life in vivo: 5.36 ± 0.64 h
[1]
  total protein half-life in vivo: 5.85 ± 1.8 h
[9]
  total protein half-life in vivo: 5 ± 0.28 h
[10]
  total protein half-life in vivo: 4.54 ± 0.56 h
[2]
  total protein half-life in vivo: 4.09 ± 0.3 h
[11]
  total protein half-life in vivo: 2.81 ± 0.26 h
[3]
  total protein half-life in vivo: 5.542 ± 0.011 h
[4]
  total protein half-life in vivo: 8.79 ± 1.1 h
[5]
  total protein half-life in vivo: 4.41 ± 0.24 h
[6]
  total protein half-life in vivo: 7.06 ± 0.16 h
[12]
  total protein half-life in vivo: 5.622 ± 0.049 h
[7]
  total protein half-life in vivo: 10.92 ± 0.053 h

## MSTEIKTQVVVLGAGPAGYSAAFRCADLGLETVIVERYNTLGGVCLNVGCIPSKALLHVAKVIEEAKALAEHGIVFGEPKTDIDKIRTWKEKVINQLTGGLAGMAKGRKVKVVNGLGKFTGANTLEVEGENGKTVINFDNAIIAAGSRPIQLPFIPHEDPRIWDSTDALELKEVPERLLVMGGGIIGLEMGTVYHALGSQIDVVEMFDQVIPAADKDIVKVFTKRISKKFNLMLETKVTAVEAKEDGIYVTMEGKKAPAEPQRYDAVLVAIGRVPNGKNLDAGKAGVEVDDRGFIRVDKQLRTNVPHIFAIGDIVGQPMLAHKGVHEGHVAAEVIAGKKHYFDPKVIPSIAYTEPEVAWVGLTEKEAKEKGISYETATFPWAASGRAIASDCADGMTKLIFDKESHRVIGGAIVGTNGGELLGEIGLAIEMGCDAEDIALTIHAHPTLHESVGLAAEVFEGSITDLPNPKAKKK [P0A9P0]
[8]
  total protein half-life in vivo: 6.89 ± 0.093 h
[1]
  total protein half-life in vivo: 6.28 ± 0.24 h
[9]
  total protein half-life in vivo: 6.35 ± 0.43 h
[10]
  total protein half-life in vivo: 6.43 ± 0.36 h
[2]
  total protein half-life in vivo: 6.01 ± 0.24 h
[11]
  total protein half-life in vivo: 3.11 ± 0.081 h
[3]
  total protein half-life in vivo: 6.68 ± 0.33 h
[4]
  total protein half-life in vivo: 12.6 ± 1.1 h
[5]
  total protein half-life in vivo: 6.23 ± 0.55 h
[6]
  total protein half-life in vivo: 13.1 ± 0.57 h
[12]
  total protein half-life in vivo: 6.11 ± 0.12 h
[7]
  total protein half-life in vivo: 14.4 ± 0.26 h

## MSTEKEKMIAGELYRSADETLSRDRLRARQLIHRYNHSLAEEHTLRQQILADLFGQVTEAYIEPTFRCDYGYNIFLGNNFFANFDCVMLDVCPIRIGDNCMLAPGVHIYTATHPIDPVARNSGAELGKPVTIGNNVWIGGRAVINPGVTIGDNVVVASGAVVTKDVPDNVVVGGNPARIIKKL
[8]
  total protein half-life in vivo: 3.81 h
[1]
  total protein half-life in vivo: > 8 h
[9]
  total protein half-life in vivo: 1.77 h
[11]
  total protein half-life in vivo: 3.24 ± 0.56 h
[3]
  total protein half-life in vivo: 3.82 ± 0.11 h
[4]
  total protein half-life in vivo: 5.15 ± 2.1 h
[12]
  total protein half-life in vivo: > 8 h
[7]
  total protein half-life in vivo: 7.59 ± 1.4 h

From the supplement of paper PMC11246515
